{
  "source": "patent US7595173B2",
  "about": "“Low-cost production of peptides” (Dow Global Technologies Inc., priority 2002, dated 2009)",
  "molecules": {"B1": {"name": "4A dimer: dimer having two D2A21 antimicrobial peptides connected by the Gly-Asp/Pro cleavage sequence, with leader and His-tag trailer (protein)", "chain": "MASMTGGQQMGRDPFAKKFAKKFKKFAKKFAKFAFAFGDPFAKKFAKKFKKFAKKFAKFAFAFGDPNSSSVDKLAAALEHHHHHH", "modifications": "Amino acid sequence of the 4A dimer."}, "B2": {"name": "AB4: trimer comprising a leader segment, three AMPs each separated by a tripeptide linker, and a trailer segment (protein)", "chain": "MASMTGGQQMGRDPFAKKFAKKFKKFAKKFAKFAFAFGDPFAKKFAKKFKKFAKKFAKFAFAFGDPFAKKFAKKFKKFAKKFAKFAFAFGDPSRRSLRKSSRNLPRSLPSSHSRSVIRIRAPSTSLRPHSSTTTTTTEIRLLTKPERKLSWLLPPLSNN", "modifications": "Amino acid sequence of the AB4 trimer."}},
  "system": "E. coli strain BL21 (DE3)",
  "assay": "Antimicrobial activity: dose-dependent inhibition of E. coli growth (standard growth inhibition assay)",
  "type": "cell-based",
  "protocol": "The antimicrobial activity of the cleaved peptides (same samples from Examples 5 and 6) was determined by measuring the dose-dependent inhibition of E. coli growth. The samples were tested for their ability to inhibit the growth of an overnight culture inoculated with E. coli strain BL21 (DE3). AMP samples were diluted serially into water in 96 well plates. Overnight cultures of E. coli BL21 (DE3) cells were diluted 1:50 into LB broth and 250 μl aliquots were transferred into 96-well plates. Each plate was incubated at 37° C. for one hour and then 50 μl of diluted peptide (or water) were added to each well. Each plate was incubated overnight at 37° C. and then the culture density was determined by measuring the apparent absorbance at 600 nm using a Spectromax Plus plate reader.",
  "data": [
    {"molecule": "B1", "values": [
      {"measurement": "antimicrobial activity", "setting": "Ni-purified, dialyzed, uncleaved dimer", "value": "no detectable antimicrobial activity"},
      {"measurement": "antimicrobial activity", "setting": "after 50% formic acid treatment, 70° C., 24 hours", "value": "significant antimicrobial activity"},
      {"measurement": "antimicrobial activity", "setting": "water-treated (control), 70° C., 24 hours", "value": "no activity"}
    ]},
    {"molecule": "B2", "values": [
      {"measurement": "antimicrobial activity of cleaved trimer", "setting": "digested with formic acid at 60° C.", "value": "potent antimicrobial activity"}
    ]}
  ]
}
